The source of these data is patent publication US20240025965A1 (UNIVERSITEIT TWENTE, published 2024).

Where no end group is shown, it is not given here.

Experiment [1] has as its target T1, rhIntegrin α11β1 (human, UniProt Q9UKX5 23-1141; P05556 21-728, limits assumed).
T1 construct: Bought from R&D Systems; also called α11β1 receptor; ITGA11 receptor
Kind of experiment: microscale thermophoresis, 1 µM labelled peptide, receptor titrated, in solution. As for the experimental part: (§1) Fluorescent labeled peptide (AV3-PEG(6)-5FAM or AXI-I-PEG(6)-FITC) (1 μM) was incubated with different concentrations of a human recombinant receptor (i.e., α5β1, α11β1 or αvβ3) for 10 minutes in Eppendorf tubes. The mixture of peptide and receptor was loaded in to NT.115™ hydrophilic glass capillaries. In order to find the best thermophoretic setting, the binding of peptide to the target receptor was examined at low (20%), middle (40%), and high (80%) MST power and all other binding experiments were performed using the same MST-settings. Finally, the dissociation constant (Kd) value was calculated from an average of three experiments.
(§2) Fluorescent labeled peptides (AV3-PEG(6)-5FAM and AXI-I-PEG(6)-FITC) were examined for their binding affinities against α5β1 and α11β1 receptors, respectively using microscale thermophoresis (MST). MST allows peptides to interact with the receptors in solution phase. These peptides were also exposed to an irrelevant receptor of the integrin family αvβ3 and MST analyses were performed.
(MST reads how a fluorescent partner responds to local heating, with and without ligand.)

Experiment [2] concerns the target T2, α5β1 human recombinant protein (human, UniProt P08648 42-995; P05556 21-728).
T2 construct: Bought from R&D Systems; also called α5β1 receptor; integrin α5β1
Kind of experiment: FITC-labelled peptide on coated α5β1 receptor in a 96-well plate, fluorescence intensity. As for the experimental part: Purified ITGA11 receptor (α11β1; 100 μg/ml—stock; R&D systems) was diluted to 5 μg/ml with 1×PBS. 96-well ELISA White Maxisorb plate (Nunc) was coated with 50 μl of 5 μg/ml ITGA11 (or as control α5β1) receptor for overnight at 4° C. Then, wells were blocked for 3-4 hours with 200 μl of blocking buffer (1×PBS containing 5% BSA). Wells were washed three times with 200 μl of washing buffer (1×PBS containing 0.5% BSA and 0.05% TWEEN®-20). Peptides conjugated with FITC were diluted to different concentrations in washing buffer and then added to the plate and incubated at 37° C. for 1 hour. In addition, the binding of the peptide was blocked by co-incubation with 10× higher amount of unlabeled peptide. Subsequently, wells were washed three times with washing buffer. Then, 100 μl of 1×PBS was added and plates were read at 485 nm/520 nm with a fluorescence plate reader.

Experiment [3] addresses T3, human recombinant receptor αvβ3 (human, UniProt P06756 31-992; P05106 27-718, limits assumed).
T3 construct: also called irrelevant receptor of the integrin family
Kind of experiment: microscale thermophoresis, 1 µM labelled peptide. On the procedure: as §1, §2

For experiment [4], the target named is T4, ITGA11 on human stellate cells (LX2 hepatic stellate cells; primary pancreatic stellate cells) (human, UniProt Q9UKX5 23-1188).
T4 construct: whole, on cells; For the pancreatic stellate cells the target is only implied; also called ITGA11-expressing hepatic stellate cells; ITGA11 expressing LX2 cells
T4 sequence (looked up): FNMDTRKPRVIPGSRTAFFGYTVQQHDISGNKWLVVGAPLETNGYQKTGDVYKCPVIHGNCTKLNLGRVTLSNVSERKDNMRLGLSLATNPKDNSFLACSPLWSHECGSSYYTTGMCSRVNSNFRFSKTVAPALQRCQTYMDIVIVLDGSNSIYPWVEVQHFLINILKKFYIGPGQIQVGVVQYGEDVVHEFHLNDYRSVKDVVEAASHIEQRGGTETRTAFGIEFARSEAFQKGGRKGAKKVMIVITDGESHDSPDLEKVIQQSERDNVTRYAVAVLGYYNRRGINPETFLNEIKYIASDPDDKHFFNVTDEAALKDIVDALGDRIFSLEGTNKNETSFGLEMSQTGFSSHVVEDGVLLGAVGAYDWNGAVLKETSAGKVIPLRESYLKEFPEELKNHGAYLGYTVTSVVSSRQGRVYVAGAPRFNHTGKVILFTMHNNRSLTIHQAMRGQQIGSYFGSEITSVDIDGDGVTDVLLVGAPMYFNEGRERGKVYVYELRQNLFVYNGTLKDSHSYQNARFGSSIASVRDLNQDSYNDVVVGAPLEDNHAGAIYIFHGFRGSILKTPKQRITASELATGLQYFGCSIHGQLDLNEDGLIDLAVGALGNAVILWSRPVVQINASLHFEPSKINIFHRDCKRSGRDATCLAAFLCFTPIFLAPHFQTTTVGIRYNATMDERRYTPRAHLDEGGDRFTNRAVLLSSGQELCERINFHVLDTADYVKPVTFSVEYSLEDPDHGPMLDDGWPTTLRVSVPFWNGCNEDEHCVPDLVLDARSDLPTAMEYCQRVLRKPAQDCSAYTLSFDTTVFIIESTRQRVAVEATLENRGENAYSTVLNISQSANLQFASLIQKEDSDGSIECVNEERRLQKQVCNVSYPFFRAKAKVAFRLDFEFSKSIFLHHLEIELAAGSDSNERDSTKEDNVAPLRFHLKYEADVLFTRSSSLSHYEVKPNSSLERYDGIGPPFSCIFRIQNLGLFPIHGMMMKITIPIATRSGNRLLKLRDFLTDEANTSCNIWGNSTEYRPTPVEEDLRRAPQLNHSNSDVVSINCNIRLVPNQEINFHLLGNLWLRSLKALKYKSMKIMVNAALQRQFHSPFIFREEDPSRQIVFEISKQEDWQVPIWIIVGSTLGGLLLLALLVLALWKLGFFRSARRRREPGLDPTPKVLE
Kind of experiment: flow cytometry on suspended primary human pancreatic stellate cells, 1 hour at 4° C.; whole-cell binding on suspended primary human pancreatic stellate cells, 1 hour at 4° C., flow cytometry; PEG- and FITC-modified peptide. On the procedure: (§3) PSCs were trypsinized using trypsin-EDTA solution and cell numbers were diluted to 4×10⁴ cells/ml. Cells were incubated at 37° C. for 30 minutes to allow receptor recovery. Then different concentrations of AXI-I-FITC was added to the cells containing 2% FBS and incubated at 4° C. for 60 minutes. Thereafter, cells were centrifuged at 1500 rpm at 4° C. for 10 minutes. Supernatant was removed and cells were washed 3 times with PBS and then were fixed with 0.5% formaldehyde for 1 hour at 4° C. and measured with flow cytometry for fluorescence.
(§4) Different concentrations of AXI-I-PEG-FITC was incubated with suspended PSCs for 1 hour at 4° C., washed and fixed with 0.5% formaldehyde and measured with flow cytometry. […] The 50% of the total binding, i.e., dissociation constant (kd) value was approximately 1 uM. Since the peptide has been modified with PEG chain and a fluorophore, the binding affinity of the peptide may be reduced due to steric hindrance.

Experiment [5] deals with T4, ITGA11 on human stellate cells (LX2 …). Kind of experiment: flow cytometry of AXI-I-PEG-FITC on suspended primary human pancreatic stellate cells, 1 hour at 4 °C. On the procedure:
as §3, §4
Background: In flow cytometry, cells or beads pass a laser one at a time.

A word on the Kd: it is a measure of binding affinity in units of concentration. A low value points to higher affinity. One may read the EC50 (read off the curve) as the concentration needed to bring the measured effect to its halfway point. A low value points to higher potency in that assay.

T3 sequence (P06756 31-992 limits assumed, chain 1 of 2): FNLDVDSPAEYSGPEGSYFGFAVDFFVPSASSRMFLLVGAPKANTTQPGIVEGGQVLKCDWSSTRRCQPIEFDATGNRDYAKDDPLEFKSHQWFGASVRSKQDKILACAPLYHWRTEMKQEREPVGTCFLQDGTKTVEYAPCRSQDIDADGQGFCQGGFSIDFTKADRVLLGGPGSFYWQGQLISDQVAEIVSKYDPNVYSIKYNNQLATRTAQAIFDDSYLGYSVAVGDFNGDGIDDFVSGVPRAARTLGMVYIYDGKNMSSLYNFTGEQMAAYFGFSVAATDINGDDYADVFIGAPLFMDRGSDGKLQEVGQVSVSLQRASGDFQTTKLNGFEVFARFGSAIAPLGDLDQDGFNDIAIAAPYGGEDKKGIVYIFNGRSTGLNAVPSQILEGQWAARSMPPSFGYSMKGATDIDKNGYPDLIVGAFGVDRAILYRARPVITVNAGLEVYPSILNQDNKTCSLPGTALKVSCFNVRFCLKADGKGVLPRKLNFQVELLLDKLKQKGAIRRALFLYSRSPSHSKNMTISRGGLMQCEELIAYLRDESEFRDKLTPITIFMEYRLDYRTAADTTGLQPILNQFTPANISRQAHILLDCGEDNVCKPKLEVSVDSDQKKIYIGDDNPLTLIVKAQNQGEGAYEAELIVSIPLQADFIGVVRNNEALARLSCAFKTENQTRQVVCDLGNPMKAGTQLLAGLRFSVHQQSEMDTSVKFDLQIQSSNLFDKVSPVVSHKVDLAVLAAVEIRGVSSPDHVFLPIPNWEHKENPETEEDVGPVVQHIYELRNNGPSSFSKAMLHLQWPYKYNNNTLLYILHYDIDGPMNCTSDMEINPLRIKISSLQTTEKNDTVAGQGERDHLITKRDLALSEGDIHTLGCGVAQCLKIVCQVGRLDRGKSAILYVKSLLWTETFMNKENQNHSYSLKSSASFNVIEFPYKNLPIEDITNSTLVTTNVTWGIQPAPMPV
T3 sequence (P05106 27-718 limits assumed, chain 2 of 2): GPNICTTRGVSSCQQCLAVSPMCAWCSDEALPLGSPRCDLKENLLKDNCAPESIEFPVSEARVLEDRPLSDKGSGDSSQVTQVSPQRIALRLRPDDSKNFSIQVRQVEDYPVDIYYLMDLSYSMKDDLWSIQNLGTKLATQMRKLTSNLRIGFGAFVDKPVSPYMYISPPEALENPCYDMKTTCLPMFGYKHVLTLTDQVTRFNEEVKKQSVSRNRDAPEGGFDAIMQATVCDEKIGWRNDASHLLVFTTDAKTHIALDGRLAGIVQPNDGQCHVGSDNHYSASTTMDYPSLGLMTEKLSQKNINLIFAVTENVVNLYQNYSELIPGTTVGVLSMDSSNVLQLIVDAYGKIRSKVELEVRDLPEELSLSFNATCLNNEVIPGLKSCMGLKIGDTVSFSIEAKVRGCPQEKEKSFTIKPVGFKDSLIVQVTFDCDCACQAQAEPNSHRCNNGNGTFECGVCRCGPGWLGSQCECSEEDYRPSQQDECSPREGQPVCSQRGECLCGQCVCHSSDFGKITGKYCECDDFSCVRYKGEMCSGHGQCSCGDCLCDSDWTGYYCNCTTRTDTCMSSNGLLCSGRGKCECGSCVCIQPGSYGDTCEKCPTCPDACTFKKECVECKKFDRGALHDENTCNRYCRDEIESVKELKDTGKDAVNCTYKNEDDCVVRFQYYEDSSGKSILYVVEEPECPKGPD
T1 sequence (P05556 21-728 limits assumed, one chain of several): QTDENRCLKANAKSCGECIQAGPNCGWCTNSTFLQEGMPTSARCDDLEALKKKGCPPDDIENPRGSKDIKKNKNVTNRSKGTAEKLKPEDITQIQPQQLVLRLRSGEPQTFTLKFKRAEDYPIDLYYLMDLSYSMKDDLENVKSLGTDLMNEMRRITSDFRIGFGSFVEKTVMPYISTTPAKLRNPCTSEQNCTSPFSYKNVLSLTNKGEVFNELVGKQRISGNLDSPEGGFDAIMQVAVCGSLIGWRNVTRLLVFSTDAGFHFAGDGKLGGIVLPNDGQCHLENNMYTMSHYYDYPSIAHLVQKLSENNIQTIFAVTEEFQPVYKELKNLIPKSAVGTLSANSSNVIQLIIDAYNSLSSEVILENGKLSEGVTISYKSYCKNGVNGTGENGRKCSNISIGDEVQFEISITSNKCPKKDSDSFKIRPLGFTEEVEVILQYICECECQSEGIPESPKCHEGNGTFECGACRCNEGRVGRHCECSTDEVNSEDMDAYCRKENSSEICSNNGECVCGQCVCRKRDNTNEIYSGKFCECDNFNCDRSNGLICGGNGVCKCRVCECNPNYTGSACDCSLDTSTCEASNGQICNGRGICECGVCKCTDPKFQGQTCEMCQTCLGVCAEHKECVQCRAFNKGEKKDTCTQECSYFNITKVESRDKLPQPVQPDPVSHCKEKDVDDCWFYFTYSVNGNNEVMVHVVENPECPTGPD
T2 sequence (P08648 42-995 limits assumed, chain 1 of 2): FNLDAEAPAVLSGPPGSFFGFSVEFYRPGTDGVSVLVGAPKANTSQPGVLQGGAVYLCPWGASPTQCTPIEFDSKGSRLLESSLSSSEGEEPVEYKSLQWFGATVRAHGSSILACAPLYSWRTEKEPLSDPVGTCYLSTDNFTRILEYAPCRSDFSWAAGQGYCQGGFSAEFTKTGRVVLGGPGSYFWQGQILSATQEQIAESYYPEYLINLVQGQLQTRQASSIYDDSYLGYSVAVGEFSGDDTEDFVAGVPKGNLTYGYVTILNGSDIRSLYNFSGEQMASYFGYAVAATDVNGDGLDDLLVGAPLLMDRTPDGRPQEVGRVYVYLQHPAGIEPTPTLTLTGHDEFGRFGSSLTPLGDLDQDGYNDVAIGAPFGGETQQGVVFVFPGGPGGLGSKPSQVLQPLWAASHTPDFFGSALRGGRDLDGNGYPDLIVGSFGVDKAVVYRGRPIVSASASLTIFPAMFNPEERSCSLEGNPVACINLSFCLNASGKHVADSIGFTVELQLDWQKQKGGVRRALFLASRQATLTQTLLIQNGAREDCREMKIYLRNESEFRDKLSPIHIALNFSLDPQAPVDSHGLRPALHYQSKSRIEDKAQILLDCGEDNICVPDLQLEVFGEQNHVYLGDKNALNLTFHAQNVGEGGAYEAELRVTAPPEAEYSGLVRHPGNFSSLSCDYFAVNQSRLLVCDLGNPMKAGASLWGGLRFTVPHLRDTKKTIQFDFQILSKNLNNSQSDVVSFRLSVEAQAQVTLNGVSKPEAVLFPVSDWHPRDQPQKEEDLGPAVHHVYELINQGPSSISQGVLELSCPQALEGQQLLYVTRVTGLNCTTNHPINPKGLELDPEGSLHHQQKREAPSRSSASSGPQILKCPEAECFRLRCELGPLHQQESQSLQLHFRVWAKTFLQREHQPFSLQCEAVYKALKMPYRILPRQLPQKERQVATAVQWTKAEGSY
T2 sequence (P05556 21-728 limits assumed, chain 2 of 2): as the sequence (P05556 21-728 limits assumed, one chain of several) above

SGLTEWLRWFNS (also: PEG(6)-FITC conjugated, site not given here, also called AXI-I-PEG-FITC; AXI-I-FITC) [AXI-I-PEG(6)-FITC]: the Kd was 149 nM in experiment [1] and roughly 1000 nM in experiment [4]. Besides, the binding result in experiment [2] is listed as “no binding (tested: 1.0 µM)”; in experiment [3], “no binding”. The “EC50 (read off the curve)” value in experiment [5] is roughly 1000 nM.
